# Laboratory results taken from the supplement of paper PMC9112550, “Optimization of the antimicrobial peptide Bac7 by deep mutational scanning” (BMC Biology, 2022).
# System: Escherichia coli TOP10
# Assay: shrunken log2 fold change of peptide-encoding DNA abundance (4.5 h post-induction vs induction); higher = less antimicrobial activity (less host growth inhibition)
# Details: time post-induction: 4.5 h; library: site-saturation at positions 5, 18, 19, 20
# 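Also: peptides expressed intracellularly from a pBAD plasmid library in pooled LB shake-flask culture, induced with 0.3% L-arabinose, DNA abundance read by NGS, three biological replicates, DESeq2 with apeglm shrinkage.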
row,Sequence,shrunken log2 fold change
1,RRIRERPPRLPRPRPRPRAGPRP,0.459
2,RRIRKRPPRLPRPRPRPVQEPRP,0.0683
3,RRIRMRPPRLPRPRPRPPCNPRP,0.0147
4,RRIRCRPPRLPRPRPRPQRLPRP,0.44
5,RRIRIRPPRLPRPRPRPAELPRP,-0.0331
6,RRIRKRPPRLPRPRPRPEEFPRP,0.227
7,RRIRRRPPRLPRPRPRPVYWPRP,0.303
8,RRIRVRPPRLPRPRPRPGIEPRP,-0.28
9,RRIRFRPPRLPRPRPRPGNDPRP,-0.512
10,RRIRWRPPRLPRPRPRPRDNPRP,0.0559
11,RRIRIRPPRLPRPRPRPHGMPRP,0.0429
12,RRIRDRPPRLPRPRPRPALFPRP,0.99
13,RRIRGRPPRLPRPRPRPRDTPRP,0.649
14,RRIRKRPPRLPRPRPRPVQVPRP,-0.0596
15,RRIRNRPPRLPRPRPRPQLRPRP,0.0493
16,RRIRRRPPRLPRPRPRPGFHPRP,0.0982
17,RRIRWRPPRLPRPRPRPCQYPRP,0.0863
18,RRIRPRPPRLPRPRPRPPEFPRP,-0.122
19,RRIRYRPPRLPRPRPRPYIYPRP,-2.06
20,RRIRDRPPRLPRPRPRPVIGPRP,0.16
21,RRIRYRPPRLPRPRPRPVLHPRP,-0.5
22,RRIRWRPPRLPRPRPRPDCGPRP,0.885
23,RRIRRRPPRLPRPRPRPTNAPRP,0.158
24,RRIRWRPPRLPRPRPRPIFFPRP,0.125
25,RRIRRRPPRLPRPRPRPFYIPRP,-0.039

row,Sequence,shrunken log2 fold change
1,RRIRKRPPRLPRPRPRPQEEPRP,0.0428
2,RRIRHRPPRLPRPRPRPFCGPRP,0.336
3,RRIRNRPPRLPRPRPRPCGTPRP,-0.139
4,RRIRARPPRLPRPRPRPDPPPRP,0.901
5,RRIRVRPPRLPRPRPRPWLVPRP,0.128
6,RRIRARPPRLPRPRPRPPLWPRP,1.17
7,RRIRGRPPRLPRPRPRPISDPRP,0.385
8,RRIRERPPRLPRPRPRPDRTPRP,-0.0361
9,RRIRGRPPRLPRPRPRPVLSPRP,0.238
10,RRIRHRPPRLPRPRPRPVGAPRP,3.01
11,RRIRERPPRLPRPRPRPDSFPRP,0.0952
12,RRIRLRPPRLPRPRPRPEFKPRP,-0.4
13,RRIRIRPPRLPRPRPRPCVAPRP,-0.288
14,RRIRVRPPRLPRPRPRPLNFPRP,-0.249
15,RRIRDRPPRLPRPRPRPEIEPRP,0.522
16,RRIRERPPRLPRPRPRPELGPRP,0.0169
17,RRIRFRPPRLPRPRPRPKWTPRP,-0.196
18,RRIRCRPPRLPRPRPRPNGEPRP,-0.0109
19,RRIRFRPPRLPRPRPRPNILPRP,-0.178
20,RRIRDRPPRLPRPRPRPSETPRP,-0.0751
21,RRIRLRPPRLPRPRPRPVTRPRP,0.0329
22,RRIRKRPPRLPRPRPRPFYAPRP,-0.0279
23,RRIRNRPPRLPRPRPRPTEVPRP,-0.268
24,RRIRDRPPRLPRPRPRPHKCPRP,-0.372
25,RRIRYRPPRLPRPRPRPFVCPRP,-0.0345

row,Sequence,shrunken log2 fold change
1,RRIRGRPPRLPRPRPRPYVQPRP,-0.122
2,RRIRIRPPRLPRPRPRPFMEPRP,-0.354
3,RRIRGRPPRLPRPRPRPYMQPRP,-0.212
4,RRIRGRPPRLPRPRPRPQGDPRP,0.824
5,RRIRLRPPRLPRPRPRPSGEPRP,0.0911
6,RRIRPRPPRLPRPRPRPGKAPRP,0.37
7,RRIRARPPRLPRPRPRPYFAPRP,-0.201
8,RRIRARPPRLPRPRPRPPQKPRP,1.29
9,RRIRCRPPRLPRPRPRPWHRPRP,0.0363
10,RRIRNRPPRLPRPRPRPEIMPRP,0.0538
11,RRIRKRPPRLPRPRPRPFMIPRP,-0.326
12,RRIRRRPPRLPRPRPRPYANPRP,-0.0552
13,RRIRLRPPRLPRPRPRPWHTPRP,-0.314
14,RRIRPRPPRLPRPRPRPENQPRP,0.0738
15,RRIRPRPPRLPRPRPRPTGIPRP,0.726
16,RRIRMRPPRLPRPRPRPMCIPRP,-0.296
17,RRIRPRPPRLPRPRPRPCHGPRP,-0.0271
18,RRIRPRPPRLPRPRPRPTAEPRP,0.595
19,RRIRFRPPRLPRPRPRPKPWPRP,0.489
20,RRIRGRPPRLPRPRPRPFKSPRP,0.08
21,RRIRHRPPRLPRPRPRPIGRPRP,-0.00982
22,RRIRWRPPRLPRPRPRPTCLPRP,0.324
23,RRIRIRPPRLPRPRPRPYDAPRP,-1.48
24,RRIRGRPPRLPRPRPRPAQAPRP,0.505
25,RRIRERPPRLPRPRPRPRRKPRP,0.11

row,Sequence,shrunken log2 fold change
1,RRIRVRPPRLPRPRPRPDVMPRP,-0.00879
2,RRIRHRPPRLPRPRPRPFNWPRP,-0.194
3,RRIRKRPPRLPRPRPRPCIQPRP,0.0636
4,RRIRKRPPRLPRPRPRPEEMPRP,-0.000157
5,RRIRDRPPRLPRPRPRPTPEPRP,0.152
6,RRIRYRPPRLPRPRPRPFIWPRP,-0.2
7,RRIRYRPPRLPRPRPRPLCWPRP,-0.264
8,RRIRFRPPRLPRPRPRPWEEPRP,-0.159
9,RRIRQRPPRLPRPRPRPNYKPRP,-0.545
10,RRIRIRPPRLPRPRPRPQNSPRP,-0.595
11,RRIRERPPRLPRPRPRPCWCPRP,-0.0114
12,RRIRCRPPRLPRPRPRPPMNPRP,-0.0519
13,RRIRLRPPRLPRPRPRPTWDPRP,0.183
14,RRIRWRPPRLPRPRPRPMVIPRP,-0.14
15,RRIRARPPRLPRPRPRPQNGPRP,-0.106
16,RRIRLRPPRLPRPRPRPMARPRP,0.0339
17,RRIRTRPPRLPRPRPRPDMHPRP,-0.249
18,RRIRIRPPRLPRPRPRPAWAPRP,0.243
19,RRIRHRPPRLPRPRPRPLIVPRP,-0.314
20,RRIRQRPPRLPRPRPRPQRCPRP,0.0862
21,RRIRWRPPRLPRPRPRPTVTPRP,0.0889
22,RRIRPRPPRLPRPRPRPHKEPRP,0.163
23,RRIRWRPPRLPRPRPRPSRCPRP,0.0613
24,RRIRSRPPRLPRPRPRPCSGPRP,-0.0317
25,RRIRYRPPRLPRPRPRPIPFPRP,-1.53

row,Sequence,shrunken log2 fold change
1,RRIRDRPPRLPRPRPRPERIPRP,-0.0322
2,RRIRKRPPRLPRPRPRPEGGPRP,0.543
3,RRIRLRPPRLPRPRPRPKLNPRP,-0.182
4,RRIRDRPPRLPRPRPRPPENPRP,0.856
5,RRIRNRPPRLPRPRPRPKKCPRP,-0.209
6,RRIRYRPPRLPRPRPRPHQQPRP,-0.0439
7,RRIRYRPPRLPRPRPRPEFHPRP,0.00393
8,RRIRVRPPRLPRPRPRPHLYPRP,-0.309
9,RRIRLRPPRLPRPRPRPEGQPRP,-0.118
10,RRIRCRPPRLPRPRPRPGNKPRP,-0.223
11,RRIRDRPPRLPRPRPRPWVKPRP,0.0766
12,RRIRMRPPRLPRPRPRPPQGPRP,0.834
13,RRIRERPPRLPRPRPRPHNGPRP,0.0109
14,RRIRVRPPRLPRPRPRPFFWPRP,0.395
15,RRIRYRPPRLPRPRPRPRECPRP,-0.154
16,RRIRKRPPRLPRPRPRPEIPPRP,-0.00514
17,RRIRKRPPRLPRPRPRPDNFPRP,-0.0455
18,RRIRFRPPRLPRPRPRPASGPRP,0.206
19,RRIRARPPRLPRPRPRPIKNPRP,0.00937
20,RRIRNRPPRLPRPRPRPVYMPRP,-0.0311
21,RRIRTRPPRLPRPRPRPGCDPRP,0.256
22,RRIRMRPPRLPRPRPRPGPTPRP,1.54
23,RRIRYRPPRLPRPRPRPSPRPRP,0.062
24,RRIRNRPPRLPRPRPRPESIPRP,-0.24
25,RRIRTRPPRLPRPRPRPIDHPRP,-0.263
